Reference: patent US20240174727A1, “LONG-ACTING NATRIURETIC PEPTIDES AND USES THEREOF” (Eli Lilly and Company, priority 2022, published 2024)
Numbered stars: 1 amine (or outer) side, 2 acyl side, 3 side chain; on linkers, the order of the positions; unused ones are H or OH. Bridge positions count the residues as written; N and C are the ends. Square brackets hold non-standard residues; d marks the D form. Ends that are not written are not given here. * marks the point of attachment. C20 diacid = O=C(O)CCCCCCCCCCCCCCCCCCC(=O)*; γGlu = O=C(O)[C@H](CCC(=O)[*:2])N[*:1]; 4Pal = N[C@@H](Cc1ccncc1)C(=O)O

T1: human NPRA (human, UniProt P16066 33-1061)
T1 sequence (looked up): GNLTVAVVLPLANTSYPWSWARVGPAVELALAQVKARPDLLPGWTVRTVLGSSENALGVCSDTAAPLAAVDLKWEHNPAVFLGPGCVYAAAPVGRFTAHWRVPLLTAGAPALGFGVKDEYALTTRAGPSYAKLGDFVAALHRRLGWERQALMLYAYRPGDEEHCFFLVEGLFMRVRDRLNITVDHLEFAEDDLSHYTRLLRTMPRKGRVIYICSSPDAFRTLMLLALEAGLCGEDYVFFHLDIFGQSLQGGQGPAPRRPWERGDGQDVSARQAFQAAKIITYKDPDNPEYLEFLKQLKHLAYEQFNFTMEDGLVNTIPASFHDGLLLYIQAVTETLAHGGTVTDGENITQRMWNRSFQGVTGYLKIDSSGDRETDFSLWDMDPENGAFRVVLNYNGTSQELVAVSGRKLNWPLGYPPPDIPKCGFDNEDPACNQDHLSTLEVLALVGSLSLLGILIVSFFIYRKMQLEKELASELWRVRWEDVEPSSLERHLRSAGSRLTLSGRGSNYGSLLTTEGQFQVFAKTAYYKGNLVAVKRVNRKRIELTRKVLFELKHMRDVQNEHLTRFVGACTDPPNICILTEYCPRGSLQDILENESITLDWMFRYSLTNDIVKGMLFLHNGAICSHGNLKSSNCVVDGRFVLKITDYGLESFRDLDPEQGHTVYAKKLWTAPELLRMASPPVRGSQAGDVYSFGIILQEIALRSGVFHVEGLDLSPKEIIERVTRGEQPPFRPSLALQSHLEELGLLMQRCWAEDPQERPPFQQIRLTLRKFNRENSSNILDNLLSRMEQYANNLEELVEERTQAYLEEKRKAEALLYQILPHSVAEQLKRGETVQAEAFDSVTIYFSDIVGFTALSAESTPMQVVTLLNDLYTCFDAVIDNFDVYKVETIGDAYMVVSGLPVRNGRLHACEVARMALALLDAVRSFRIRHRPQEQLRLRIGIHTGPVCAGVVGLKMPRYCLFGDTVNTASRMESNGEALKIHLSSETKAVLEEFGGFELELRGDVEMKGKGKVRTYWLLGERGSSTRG

T2: rat NPRA (rat, UniProt P18910 29-1057)
T2 sequence (looked up): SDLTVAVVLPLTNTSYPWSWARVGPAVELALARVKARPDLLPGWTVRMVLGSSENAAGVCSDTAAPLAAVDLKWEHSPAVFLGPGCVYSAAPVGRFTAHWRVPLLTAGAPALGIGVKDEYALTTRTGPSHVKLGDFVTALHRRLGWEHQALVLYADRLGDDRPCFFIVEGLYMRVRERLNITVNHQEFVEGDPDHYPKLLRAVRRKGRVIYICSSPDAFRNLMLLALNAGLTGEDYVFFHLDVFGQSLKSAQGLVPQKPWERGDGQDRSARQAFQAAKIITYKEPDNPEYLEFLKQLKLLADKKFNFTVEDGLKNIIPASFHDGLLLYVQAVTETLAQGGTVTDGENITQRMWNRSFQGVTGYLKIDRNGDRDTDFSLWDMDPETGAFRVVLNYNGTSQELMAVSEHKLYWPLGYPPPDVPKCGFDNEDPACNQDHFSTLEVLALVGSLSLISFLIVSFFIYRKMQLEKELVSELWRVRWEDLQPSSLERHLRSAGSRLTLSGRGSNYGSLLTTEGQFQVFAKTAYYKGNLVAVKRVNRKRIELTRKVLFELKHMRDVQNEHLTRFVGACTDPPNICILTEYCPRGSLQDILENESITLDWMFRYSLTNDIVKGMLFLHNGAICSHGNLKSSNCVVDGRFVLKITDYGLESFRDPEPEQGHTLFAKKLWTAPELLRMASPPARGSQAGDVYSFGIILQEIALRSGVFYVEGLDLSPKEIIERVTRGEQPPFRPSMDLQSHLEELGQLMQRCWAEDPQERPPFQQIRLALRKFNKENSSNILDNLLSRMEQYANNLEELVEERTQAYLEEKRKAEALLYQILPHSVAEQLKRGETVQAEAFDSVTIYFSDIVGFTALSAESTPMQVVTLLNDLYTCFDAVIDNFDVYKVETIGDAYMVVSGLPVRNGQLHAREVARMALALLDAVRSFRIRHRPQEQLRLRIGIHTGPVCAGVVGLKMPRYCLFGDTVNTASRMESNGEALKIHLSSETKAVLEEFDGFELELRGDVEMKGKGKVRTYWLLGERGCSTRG


Legend:
[1] = target: T1, human NPRA; test: cell-based or functional assay
[2] = target: T2, rat NPRA; test: cell-based or functional assay

| Binder | cGMP Assay (EC50, pM) w/BSA [1] [pM] | cGMP Assay (EC50, pM) w/Casein [1] [pM] | cGMP Assay (EC50, pM) w/BSA [2] [pM] | cGMP Assay (EC50, pM) w/Casein [2] [pM] |
| --- | --- | --- | --- | --- |
| {C20 diacid}-[γGlu]EKEKEKGS[4Pal]RRSSCFGGRIDRIGHQSGLGCPSFR[4Pal]-NH2 (disulfide 15-31; SMILES CC[C@H](C)[C@@H]1NC(=O)[C@H](CCCNC(=N)N)NC(=O)[C@H](CC(=O)O)NC(=O)[C@H]([C@@H](C)CC)NC(=O)[C@H](CCCNC(=N)N)NC(=O)CNC(=O)CNC(=O)[C@H](Cc2ccccc2)NC(=O)[C@@H](NC(=O)[C@H](CO)NC(=O)[C@H](CO)NC(=O)[C@H](CCCNC(=N)N)NC(=O)[C@H](CCCNC(=N)N)NC(=O)[C@H](Cc2ccncc2)NC(=O)[C@H](CO)NC(=O)CNC(=O)[C@H](CCCCN)NC(=O)[C@H](CCC(=O)O)NC(=O)[C@H](CCCCN)NC(=O)[C@H](CCC(=O)O)NC(=O)[C@H](CCCCN)NC(=O)[C@H](CCC(=O)O)NC(=O)CC[C@H](NC(=O)CCCCCCCCCCCCCCCCCCC(=O)O)C(=O)O)CSSC[C@@H](C(=O)N2CCC[C@H]2C(=O)N[C@@H](CO)C(=O)N[C@@H](Cc2ccccc2)C(=O)N[C@@H](CCCNC(=N)N)C(=O)N[C@@H](Cc2ccncc2)C(N)=O)NC(=O)CNC(=O)[C@H](CC(C)C)NC(=O)CNC(=O)[C@H](CO)NC(=O)[C@H](CCC(N)=O)NC(=O)[C@H](Cc2c[nH]cn2)NC(=O)CNC1=O) [Example 24] | 21000 | 560 | 66100 | 703 |
| {C20 diacid}-[γGlu]EKEKEKGS[4Pal]KRSSCFGGKIDRIGHQSGLGCPSFRHGPSSGAPPPS-NH2 (disulfide 15-31) [Example 33] | 22200 | 199 | 112000 | 383 |
| {C20 diacid}-[γGlu]EKEKEKGS[4Pal]RRSSCFGGRIDRIGHQSGLGCPSFRHRITAREDKQGYA-NH2 (disulfide 15-31) [Example 25] | 12000 | 436 | 57300 | 654 |
| {C20 diacid}-[γGlu]EKEKEKGEKGRSSCFGGRIDRIGHYSGLGCPSLRHGGPSSGAPPPS-NH2 (disulfide 15-31) [Example 51] | 11100 | 361 | 82700 | 909 |
| {C20 diacid}-[γGlu]EKEKEKGS[4Pal]RRSSCFGGRIDRIGHQSGLGCPSFRHRITAREDKQGEA-NH2 (disulfide 15-31) [Example 26] | 17800 | 682 | 119000 | 803 |
| {C20 diacid}-[γGlu]EKEKEKGS[4Pal]RRSSCFGGRIGRIGHQSGLGCPSFRHGGPSSGAPPPS-NH2 (disulfide 15-31) [Example 29] | 32200 | 482 | 1.91e+06 | 16800 |
| {C20 diacid}-[γGlu]EKEKEKGS[4Pal]KRSSCFGGKIDRIGHQSGLGCPSFRHKITAKEDE-NH2 (disulfide 15-31) [Example 34] | 26100 | 291 | 422000 | 1200 |
| {C20 diacid}-[γGlu]EKEKEKGS[4Pal]RRSSCFGGRIDRIGAQSGLGCPSFRH-NH2 (disulfide 15-31; SMILES CC[C@H](C)[C@@H]1NC(=O)[C@H](CCCNC(=N)N)NC(=O)[C@H](CC(=O)O)NC(=O)[C@H]([C@@H](C)CC)NC(=O)[C@H](CCCNC(=N)N)NC(=O)CNC(=O)CNC(=O)[C@H](Cc2ccccc2)NC(=O)[C@@H](NC(=O)[C@H](CO)NC(=O)[C@H](CO)NC(=O)[C@H](CCCNC(=N)N)NC(=O)[C@H](CCCNC(=N)N)NC(=O)[C@H](Cc2ccncc2)NC(=O)[C@H](CO)NC(=O)CNC(=O)[C@H](CCCCN)NC(=O)[C@H](CCC(=O)O)NC(=O)[C@H](CCCCN)NC(=O)[C@H](CCC(=O)O)NC(=O)[C@H](CCCCN)NC(=O)[C@H](CCC(=O)O)NC(=O)CC[C@H](NC(=O)CCCCCCCCCCCCCCCCCCC(=O)O)C(=O)O)CSSC[C@@H](C(=O)N2CCC[C@H]2C(=O)N[C@@H](CO)C(=O)N[C@@H](Cc2ccccc2)C(=O)N[C@@H](CCCNC(=N)N)C(=O)N[C@@H](Cc2c[nH]cn2)C(N)=O)NC(=O)CNC(=O)[C@H](CC(C)C)NC(=O)CNC(=O)[C@H](CO)NC(=O)[C@H](CCC(N)=O)NC(=O)[C@H](C)NC(=O)CNC1=O) [Example 22] | 25100 | 840 | 192000 | 1690 |
| SLRRSSCFGGRIDRIGAQSGLGCNSFRY-NH2 (disulfide 7-23; N-terminus assumed; SMILES CC[C@H](C)[C@@H]1NC(=O)[C@H](CCCNC(=N)N)NC(=O)[C@H](CC(=O)O)NC(=O)[C@H]([C@@H](C)CC)NC(=O)[C@H](CCCNC(=N)N)NC(=O)CNC(=O)CNC(=O)[C@H](Cc2ccccc2)NC(=O)[C@@H](NC(=O)[C@H](CO)NC(=O)[C@H](CO)NC(=O)[C@H](CCCNC(=N)N)NC(=O)[C@H](CCCNC(=N)N)NC(=O)[C@H](CC(C)C)NC(=O)[C@@H](N)CO)CSSC[C@@H](C(=O)N[C@@H](CC(N)=O)C(=O)N[C@@H](CO)C(=O)N[C@@H](Cc2ccccc2)C(=O)N[C@@H](CCCNC(=N)N)C(=O)N[C@@H](Cc2ccc(O)cc2)C(N)=O)NC(=O)CNC(=O)[C@H](CC(C)C)NC(=O)CNC(=O)[C@H](CO)NC(=O)[C@H](CCC(N)=O)NC(=O)[C@H](C)NC(=O)CNC1=O) [rat ANP (amidated)] | 138 | 128 | 114 | 73 |
| XEKEKEKGSXRRSSCFGGRIDRIGHQSGLGCPSFRHGGPSSGAPPPS (HOOC-(CH2)18-CO-(γGlu)-EKEKEKGS-4Pal-RRSS[CFGGRIDRIGHQSGLGC]PSFRHGGPSSGAPPPS-NH2; disulfide linkage between the bracketed Cys) [Example 1] | 11600 | 335 | 81900 | 1810 |
| XEKEKEKGSXRRSSCFGGRIDRIGHQSGLGCPSFRHGGPSSGAPPPS (HOOC-(CH2)18-CO-(γGlu)-EKEKEKGS-4Pal-RRSS[CFGGRIDRIGHQSGLGC]PSFRHGGPSSGAPPPS-NH2; thioacetal linkage between the bracketed Cys) [Example 2] | 93400 | 1020 | 1.27e+06 | 14100 |
| {C20 diacid}-[γGlu]EKEKEKGS[4Pal]RRSSCFGGRIDRIGHQSGLGCPSFRHSGAPPPSE-NH2 (disulfide 15-31) [Example 39] | 9970 | 276 | 93300 | 439 |
